Data as given in publication PMC6473903, “Isoform-Specific NO Synthesis by Arabidopsis thaliana Nitrate Reductase” (Plants, 2019).

Experiments:
[1] = biological target: T1, re-constituted (composite) NIA1 (Arabidopsis thaliana, UniProt P11832); assay: NO analyzer, inhibition of nitrite reduction (NO production); format: biochemical
T1 construct: both from E. coli, IMAC purified; with Nitrate reductase [NADH]
T1 sequence (P11832 1-627): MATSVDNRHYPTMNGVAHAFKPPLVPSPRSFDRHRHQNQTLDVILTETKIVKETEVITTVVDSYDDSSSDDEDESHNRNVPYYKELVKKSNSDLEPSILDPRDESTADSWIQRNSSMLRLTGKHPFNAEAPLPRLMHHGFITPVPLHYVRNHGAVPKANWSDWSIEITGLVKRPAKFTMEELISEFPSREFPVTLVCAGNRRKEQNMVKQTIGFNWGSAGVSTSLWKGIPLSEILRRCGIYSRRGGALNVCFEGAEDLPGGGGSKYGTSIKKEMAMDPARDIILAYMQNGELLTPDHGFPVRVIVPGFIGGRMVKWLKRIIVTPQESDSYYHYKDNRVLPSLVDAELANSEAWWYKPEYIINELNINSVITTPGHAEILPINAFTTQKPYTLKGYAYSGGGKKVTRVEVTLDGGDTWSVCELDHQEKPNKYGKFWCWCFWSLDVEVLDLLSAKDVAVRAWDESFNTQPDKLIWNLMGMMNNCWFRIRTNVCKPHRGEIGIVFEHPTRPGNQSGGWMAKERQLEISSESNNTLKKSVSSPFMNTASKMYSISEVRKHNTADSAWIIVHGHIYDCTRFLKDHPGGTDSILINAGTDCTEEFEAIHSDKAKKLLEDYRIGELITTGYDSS
T1 sequence (P11832 628-917 partner): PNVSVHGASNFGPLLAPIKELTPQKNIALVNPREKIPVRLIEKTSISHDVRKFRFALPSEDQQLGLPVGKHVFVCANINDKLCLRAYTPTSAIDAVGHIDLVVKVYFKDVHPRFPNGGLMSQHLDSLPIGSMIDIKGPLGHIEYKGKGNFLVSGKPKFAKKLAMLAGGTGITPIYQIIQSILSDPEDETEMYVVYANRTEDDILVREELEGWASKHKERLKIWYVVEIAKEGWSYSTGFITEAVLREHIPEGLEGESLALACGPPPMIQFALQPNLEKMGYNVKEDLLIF

[2] = biological target: T2, re-constituted (composite) NIA2 (Arabidopsis thaliana, UniProt P11035); assay: as above; format: biochemical
T2 construct: both from E. coli, IMAC purified; with Nitrate reductase [NADH]
T2 sequence (P11035 1-625): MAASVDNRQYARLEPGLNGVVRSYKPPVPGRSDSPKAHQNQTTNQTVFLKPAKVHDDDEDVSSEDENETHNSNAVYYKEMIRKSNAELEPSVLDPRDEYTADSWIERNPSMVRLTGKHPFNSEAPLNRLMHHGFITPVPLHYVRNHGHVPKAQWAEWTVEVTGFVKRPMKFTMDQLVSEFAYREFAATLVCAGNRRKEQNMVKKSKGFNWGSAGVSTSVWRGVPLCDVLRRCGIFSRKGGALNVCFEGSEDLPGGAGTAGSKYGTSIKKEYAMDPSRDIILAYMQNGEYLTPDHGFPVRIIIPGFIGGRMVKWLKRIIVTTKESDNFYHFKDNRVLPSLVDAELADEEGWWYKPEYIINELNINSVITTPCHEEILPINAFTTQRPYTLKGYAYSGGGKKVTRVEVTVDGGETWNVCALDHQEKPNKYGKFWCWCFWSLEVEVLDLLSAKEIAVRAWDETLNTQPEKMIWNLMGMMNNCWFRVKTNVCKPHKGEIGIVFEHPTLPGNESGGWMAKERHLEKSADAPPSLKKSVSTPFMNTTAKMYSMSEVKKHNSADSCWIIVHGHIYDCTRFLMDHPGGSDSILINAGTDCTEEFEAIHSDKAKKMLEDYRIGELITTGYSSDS
T2 sequence (P11035 626-917 partner): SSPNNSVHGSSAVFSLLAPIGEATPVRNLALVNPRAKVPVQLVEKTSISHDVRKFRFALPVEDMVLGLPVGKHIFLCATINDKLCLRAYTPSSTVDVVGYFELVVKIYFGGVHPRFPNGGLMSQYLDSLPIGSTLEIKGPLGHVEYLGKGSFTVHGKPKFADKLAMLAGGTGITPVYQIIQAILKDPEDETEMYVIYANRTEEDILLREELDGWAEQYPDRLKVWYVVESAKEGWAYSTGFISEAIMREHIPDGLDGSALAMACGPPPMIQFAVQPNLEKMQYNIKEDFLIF

[3] = substrate: O=NO; assay: BV:nitrite steady-state assay, A595; format: biochemical, Arabidopsis thaliana; conditions: reduced benzyl viologen as electron donor, pH 7.5, 22-25 °C, anaerobic
Source text: BV:nitrite steady-state assay, A595 on NIA2-Mo-heme

O=[N+]([O-])O [nitrate]
IC50 [1]: 12 ± 1.7 µM
IC50 [2]: 36 ± 2.7 µM

B1: NIA2-Mo-heme (Arabidopsis thaliana) (protein)
chain: MAASVDNRQYARLEPGLNGVVRSYKPPVPGRSDSPKAHQNQTTNQTVFLKPAKVHDDDEDVSSEDENETHNSNAVYYKEMIRKSNAELEPSVLDPRDEYTADSWIERNPSMVRLTGKHPFNSEAPLNRLMHHGFITPVPLHYVRNHGHVPKAQWAEWTVEVTGFVKRPMKFTMDQLVSEFAYREFAATLVCAGNRRKEQNMVKKSKGFNWGSAGVSTSVWRGVPLCDVLRRCGIFSRKGGALNVCFEGSEDLPGGAGTAGSKYGTSIKKEYAMDPSRDIILAYMQNGEYLTPDHGFPVRIIIPGFIGGRMVKWLKRIIVTTKESDNFYHFKDNRVLPSLVDAELADEEGWWYKPEYIINELNINSVITTPCHEEILPINAFTTQRPYTLKGYAYSGGGKKVTRVEVTVDGGETWNVCALDHQEKPNKYGKFWCWCFWSLEVEVLDLLSAKEIAVRAWDETLNTQPEKMIWNLMGMMNNCWFRVKTNVCKPHKGEIGIVFEHPTLPGNESGGWMAKERHLEKSADAPPSLKKSVSTPFMNTTAKMYSMSEVKKHNSADSCWIIVHGHIYDCTRFLMDHPGGSDSILINAGTDCTEEFEAIHSDKAKKMLEDYRIGELITTGYSSDS
notes: N-terminal Moco + hinge 1 + heme domain fragment, residues 1-625; E. coli TP1004, Ni-NTA and SEC purified
Km [3]: 13.7 ± 3.3 µM
kcat [3]: 1.8 ± 0.3 s⁻¹

B2: NIA2-Mo-heme (Arabidopsis thaliana; H600A) (protein)
chain: MAASVDNRQYARLEPGLNGVVRSYKPPVPGRSDSPKAHQNQTTNQTVFLKPAKVHDDDEDVSSEDENETHNSNAVYYKEMIRKSNAELEPSVLDPRDEYTADSWIERNPSMVRLTGKHPFNSEAPLNRLMHHGFITPVPLHYVRNHGHVPKAQWAEWTVEVTGFVKRPMKFTMDQLVSEFAYREFAATLVCAGNRRKEQNMVKKSKGFNWGSAGVSTSVWRGVPLCDVLRRCGIFSRKGGALNVCFEGSEDLPGGAGTAGSKYGTSIKKEYAMDPSRDIILAYMQNGEYLTPDHGFPVRIIIPGFIGGRMVKWLKRIIVTTKESDNFYHFKDNRVLPSLVDAELADEEGWWYKPEYIINELNINSVITTPCHEEILPINAFTTQRPYTLKGYAYSGGGKKVTRVEVTVDGGETWNVCALDHQEKPNKYGKFWCWCFWSLEVEVLDLLSAKEIAVRAWDETLNTQPEKMIWNLMGMMNNCWFRVKTNVCKPHKGEIGIVFEHPTLPGNESGGWMAKERHLEKSADAPPSLKKSVSTPFMNTTAKMYSMSEVKKHNSADSCWIIVHGHIYDCTRFLMDHPGGSDSILINAGTDCTEEFEAIASDKAKKMLEDYRIGELITTGYSSDS
notes: as for B1
Km ([3]; heme-coordinating His mutated): 10.3 ± 1.2 µM
kcat ([3]; heme-coordinating His mutated): 1.2 ± 0.02 s⁻¹
